In US20070123452A1, “Method of selecting novel immunosuppressant” (Astellas Pharma Inc., priority 2002, published 2007):
Substitutions are numbered along the chain they refer to. Names may count otherwise.

B1: HDAC4 dominant negative variants (H802K, H803L): HDAC4 variant with H802K and H803L mutations, amino acid sequence SEQ ID NO:4, expressed from plasmid (protein)
chain: MSSQSHPDGLSGRDQPVELLNPARVNHMPSTVDVATALPLQVAPSAVPMDLRLDHQFSLPVAEPALREQQLQQELLALKQKQQIQRQILIAEFQRQHEQLSRQHEAQLHEHIKQQQEMLAMKHQQELLEHQRKLERHRQEQELEKQHREQKLQQLKNKEKGKESAVASTEVKMKLQEFVLNKKKALAHRNLNHCISSDPRYWYGKTQHSSLDQSSPPQSGVSTSYNHPVLGMYDAKDDFPLRKTASEPNLKLRSRLKQKVAERRSSPLLRRKDGPVVTALKKRPLDVTDSACSSAPGSGPSSPNNSSGSVSAENGIAPAVPSIPAETSLAHRLVAREGSAAPLPLYTSPSLPNITLGLPATGPSAGTAGQQDTERLTLPALQQRLSLFPGTHLTPYLSTSPLERDGGAAHSPLLQHMVLLEQPPAQAPLVTGLGALPLHAQSLVGADRVSPSIHKLRQHRPLGRTQSAPLPQNAQALQHLVIQQQHQQFLEKHKQQFQQQQLQMNKIIPKPSEPARQPESHPEETEEELREHQALLDEPYLDRLPGQKEAHAQAGVQVKQEPIESDEEEAEPPREVEPGQRQPSEQELLFRQQALLLEQQRIHQLRNYQASMEAAGIPVSFGGHRPLSRAQSSPASATFPVSVQEPPTKPRFTTGLVYDTLMLKHQCTCGSSSSHPEHAGRIQSIWSRLQETGLRGKCECIRGRKATLEELQTVHSEAHTLLYGTNPLNRQKLDSKKLLGSLASVFVRLPCGGVGVDSDTIWNEVHSAGAARLAVGCVVELVFKVATGELKNGFAVVRPPGKLAEESTPMGFCYFNSVAVAAKLLQQRLSVSKILIVDWDVHHGNGTQQAFYSDPSVLYMSLHRYDDGNFFPGSGAPDEVGTGPGVGFNVNMAFTGGLDPPMGDAEYLAAFRTVVMPIASEFAPDVVLVSSGFDAVEGHPTPLGGYNLSARCFGYLTKQLMGLAGGRIVLALEGGHDLTAICDASEACVSALLGNELDPLPEKVLQQRPNANAVRSMEKVMEIHSKYWRCLQRTTSTAGRSLIEAQTCENEEAETVTAMASLSVGVKPAEKRPDEEPMEEEPPL
modifications: Dominant negative mutant (H802K, H803L) of human histone deacetylase-4 (HDAC4) gene
B2: HDAC4 dominant negative variant (H863L) with C-terminal Flag (expressed from pEAK-HDAC4 (H863L)) (protein)
chain: MSSQSHPDGLSGRDQPVELLNPARVNHMPSTVDVATALPLQVAPSAVPMDLRLDHQFSLPVAEPALREQQLQQELLALKQKQQIQRQILIAEFQRQHEQLSRQHEAQLHEHIKQQQEMLAMKHQQELLEHQRKLERHRQEQELEKQHREQKLQQLKNKEKGKESAVASTEVKMKLQEFVLNKKKALAHRNLNHCISSDPRYWYGKTQHSSLDQSSPPQSGVSTSYNHPVLGMYDAKDDFPLRKTASEPNLKLRSRLKQKVAERRSSPLLRRKDGPVVTALKKRPLDVTDSACSSAPGSGPSSPNNSSGSVSAENGIAPAVPSIPAETSLAHRLVAREGSAAPLPLYTSPSLPNITLGLPATGPSAGTAGQQDTERLTLPALQQRLSLFPGTHLTPYLSTSPLERDGGAAHSPLLQHMVLLEQPPAQAPLVTGLGALPLHAQSLVGADRVSPSIHKLRQHRPLGRTQSAPLPQNAQALQHLVIQQQHQQFLEKHKQQFQQQQLQMNKIIPKPSEPARQPESHPEETEEELREHQALLDEPYLDRLPGQKEAHAQAGVQVKQEPIESDEEEAEPPREVEPGQRQPSEQELLFRQQALLLEQQRIHQLRNYQASMEAAGIPVSFGGHRPLSRAQSSPASATFPVSVQEPPTKPRFTTGLVYDTLMLKHQCTCGSSSSHPEHAGRIQSIWSRLQETGLRGKCECIRGRKATLEELQTVHSEAHTLLYGTNPLNRQKLDSKKLLGSLASVFVRLPCGGVGVDSDTIWNEVHSAGAARLAVGCVVELVFKVATGELKNGFAVVRPPGHHAEESTPMGFCYFNSVAVAAKLLQQRLSVSKILIVDWDVHHGNGTQQAFYSDPSVLYMSLLRYDDGNFFPGSGAPDEVGTGPGVGFNVNMAFTGGLDPPMGDAEYLAAFRTVVMPIASEFAPDVVLVSSGFDAVEGHPTPLGGYNLSARCFGYLTKQLMGLAGGRIVLALEGGHDLTAICDASEACVSALLGNELDPLPEKVLQQRPNANAVRSMEKVMEIHSKYWRCLQRTTSTAGRSLIEAQTCENEEAETVTAMASLSVGVKPAEKRPDEEPMEEEPPLDYKDDDDK
B3: HDAC4 dominant negative variant (H802K, H803L) with C-terminal Flag (expressed from pEAK-HDAC4 (H802K, H803L)) (protein)
chain: B2 chain with H802K, H803L, L863H

How the values were obtained:
[1] = test system: GATA-1 transcription (human GATA-1 promoter); experiment: GATA-1 reporter gene assay in HEL cells; assay type: cell-based; conditions: 10 μg expression plasmid
Protocol: Using 15 μg of pGL3-HSI-IE Pro and 10 μg of a plasmid for the expression of various HDACs or HDAC variants, 8.75×10^6 HEL cells (accession number JCRB0062, JCRB) were transformed by the electroporation method (BIO-RAD, Gene Pulser II, voltage 1750 V, charge 10 μF, 365 μL). After transformation, 2 mL of 10% FBS RPMI 1640 was added, and this mixture was dispensed to a 96-well white plate in a ratio of 50 μL/well. After cultivation under conditions of 37° C., 5% CO2 and saturated humidity for 3 hours, 10% FBS RPMI 1640 medium was added at 50 μL/well. After cultivation under conditions of 37° C., 5% CO2 and saturated humidity for 8 hours, luciferase activity in cells were measured according to the manual of the Bright-Glo Luciferase Assay System, and GATA-1 transcriptional activity was measured using a multi-label counter.
(§1) A mixture of four kinds of HDAC4-targeted siRNA, i.e., siGENE HDAC4 SMARTpool (manufactured by Dharmacon Inc., marketed by B-Bridge international Inc., code number M-003497-00-05), or Non-specific Control Duplex IX (47% GC content) (manufactured by Dharmacon Inc., marketed by B-Bride international Inc., code number D-001206-09-20), and pGL3 IL2 Pro43 were transfected to Jurkat cells by the electroporation method using the same conditions as those mentioned above, and IL-2 transcriptional activity was measured. […]

histone = experiment: HDAC activity with [3H]-labeled acetylated histone as a substrate; assay type: biochemical, human; conditions: expressed in 293T cells, crudely purified; compared to wild-type HDAC4
Protocol: 7 μg of a plasmid for the expression of wild-type HDAC4 and HDAC4 dominant negative variants (H802K, H803L, H863L) was transfected to 293T cells by the calcium phosphate method; 48 hours later, whole cell lysate (cells were disrupted in 25 mM Tris, pH 7.4, 150 mM NaCl, 1 mM CaCl2, 1% Triton X-100, and cell debris was removed by centrifugation) was crudely purified using an anti-Flag antibody column (SIGMA, anti-Flag M2-agarose) (washed with TBS, then eluted with 0.1M Glysine-HCl, pH 3.5), and used for the measurement of HDAC activity. The reaction substrate used was a [^3H]-labeled acetylated histone prepared by cultivating Jurkat cells (2×10^8 cells) in 40 mL of an RPMI (SIGMA) medium containing 300 MBq [^3H] sodium acetate (NENTM Life Science Products, Inc.) for 2 hours, disrupting the cells in Lysis buffer, pH 6.5 (10 mM Tris-HCl, 50 mM Sodium Hydrogen sulfate, 1% Triton X-100, 10 mM MgCl2-6H2O, 8.6% Sucrose), washing the cells with Wash buffer (10 mM Tris-HCl, 13 mM EDTA), and then adding 0.4N H2SO4.

[2] = test system: IL-2 transcription (human IL-2 promoter); experiment: IL-2 reporter gene assay in Jurkat cells; assay type: cell-based
Protocol: To 1 μg of the plasmid pGL3 IL2 Pro43, which has a human IL-2 promoter sequence (the −674 to +54 region in the vicinity of the transcription initiation site) upstream of the firefly luciferase gene, and 6 μg of pRL-TK (Promega), the plasmids for the expression of wild-type HDAC4 or each of HDAC4 dominant negative variants (H802K, H803L, H863L) prepared in Example 3 was mixed in various ratios (1, 3 and 10 μg), and 1×10^7 Jurkat cells (ATCC, TIB-152) were transformed by the electroporation method (BIO-RAD, Gene Pulser II, voltage 300 V, charge 975 μF, 400 μL).
After transformation, 2.5 mL of RPMI 1640 containing 10% FBS (MOREGATE) (10% FBS RPMI 1640) was added, and this mixture was dispensed to a 96-well white plate in a ratio of 50 μL/well. After cultivation under conditions of 37° C., 5% CO2 and saturated humidity for 10 hours, a liquid mixture of Phorbol 12-Myristate 13-Acetate (PMA, SIGMA), Ionomycin (SIGMA) and Anti-CD28 antibody (Pharmingen) in 10% FBS RPMI 1640 was added at 50 μL/well (the final concentrations were 50 ng/mL, 1 μg/mL and 75 ng/mL, respectively) to stimulate the Jurkat cells. After cultivation under conditions of 37° C., 5% CO2 and saturated humidity for 12 hours, luciferase activity in the cells was measured according to the manual of the Bright-Glo Luciferase Assay System (Promega) using a multi-label counter (1420 MULTILABEL COUNTER ARVO SX, WALLAC).
1×10^7 Jurkat cells (ATCC, TIB-152) were transformed with 10 μg of a plasmid for the expression of various HDACs or HDAC variants by the electroporation method (BIO-RAD, Gene Pulser II, voltage 300 V, charge 975 μF, 400 μL). […] After cultivation under conditions of 37° C., 5% CO2 and saturated humidity for 12 hours, luciferase activity in cells were measured according to the manual of the Bright-Glo Luciferase Assay System (Promega), and IL-2 transcriptional activity was measured using a multi-label counter (1420 MULTILABEL COUNTER ARVO SX, WALLAC).
as §1, with “measured. Likewise, siGENE HDAC4 SMARTpool or Non-specific Control Duplex IX, and pGL3-HSI-IE Pro were transfected to HEL cells, and GATA-1 transcriptional activity was measured.” for “measured.”

[3] = biological target: T1, HDAC3, endogenous protein of the transfected cells, O15379
T1 chain: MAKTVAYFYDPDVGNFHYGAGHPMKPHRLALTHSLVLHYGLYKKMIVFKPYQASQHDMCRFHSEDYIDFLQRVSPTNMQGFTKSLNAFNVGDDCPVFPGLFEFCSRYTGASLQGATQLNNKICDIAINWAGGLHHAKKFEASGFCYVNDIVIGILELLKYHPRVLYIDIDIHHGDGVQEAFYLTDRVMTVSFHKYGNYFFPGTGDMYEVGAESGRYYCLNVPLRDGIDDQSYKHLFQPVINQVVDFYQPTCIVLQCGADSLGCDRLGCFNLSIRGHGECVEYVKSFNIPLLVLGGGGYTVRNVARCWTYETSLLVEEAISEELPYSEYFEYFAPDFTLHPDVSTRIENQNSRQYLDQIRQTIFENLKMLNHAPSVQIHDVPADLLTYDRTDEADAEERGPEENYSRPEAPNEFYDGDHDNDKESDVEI

[4] = biological target: N-CoR (nuclear receptor corepressor), endogenous protein of the transfected cells, O75376
Chain of N-CoR (nuclear receptor corepressor), endogenous protein of the transfected cells, O75376 (O75376 whole entry): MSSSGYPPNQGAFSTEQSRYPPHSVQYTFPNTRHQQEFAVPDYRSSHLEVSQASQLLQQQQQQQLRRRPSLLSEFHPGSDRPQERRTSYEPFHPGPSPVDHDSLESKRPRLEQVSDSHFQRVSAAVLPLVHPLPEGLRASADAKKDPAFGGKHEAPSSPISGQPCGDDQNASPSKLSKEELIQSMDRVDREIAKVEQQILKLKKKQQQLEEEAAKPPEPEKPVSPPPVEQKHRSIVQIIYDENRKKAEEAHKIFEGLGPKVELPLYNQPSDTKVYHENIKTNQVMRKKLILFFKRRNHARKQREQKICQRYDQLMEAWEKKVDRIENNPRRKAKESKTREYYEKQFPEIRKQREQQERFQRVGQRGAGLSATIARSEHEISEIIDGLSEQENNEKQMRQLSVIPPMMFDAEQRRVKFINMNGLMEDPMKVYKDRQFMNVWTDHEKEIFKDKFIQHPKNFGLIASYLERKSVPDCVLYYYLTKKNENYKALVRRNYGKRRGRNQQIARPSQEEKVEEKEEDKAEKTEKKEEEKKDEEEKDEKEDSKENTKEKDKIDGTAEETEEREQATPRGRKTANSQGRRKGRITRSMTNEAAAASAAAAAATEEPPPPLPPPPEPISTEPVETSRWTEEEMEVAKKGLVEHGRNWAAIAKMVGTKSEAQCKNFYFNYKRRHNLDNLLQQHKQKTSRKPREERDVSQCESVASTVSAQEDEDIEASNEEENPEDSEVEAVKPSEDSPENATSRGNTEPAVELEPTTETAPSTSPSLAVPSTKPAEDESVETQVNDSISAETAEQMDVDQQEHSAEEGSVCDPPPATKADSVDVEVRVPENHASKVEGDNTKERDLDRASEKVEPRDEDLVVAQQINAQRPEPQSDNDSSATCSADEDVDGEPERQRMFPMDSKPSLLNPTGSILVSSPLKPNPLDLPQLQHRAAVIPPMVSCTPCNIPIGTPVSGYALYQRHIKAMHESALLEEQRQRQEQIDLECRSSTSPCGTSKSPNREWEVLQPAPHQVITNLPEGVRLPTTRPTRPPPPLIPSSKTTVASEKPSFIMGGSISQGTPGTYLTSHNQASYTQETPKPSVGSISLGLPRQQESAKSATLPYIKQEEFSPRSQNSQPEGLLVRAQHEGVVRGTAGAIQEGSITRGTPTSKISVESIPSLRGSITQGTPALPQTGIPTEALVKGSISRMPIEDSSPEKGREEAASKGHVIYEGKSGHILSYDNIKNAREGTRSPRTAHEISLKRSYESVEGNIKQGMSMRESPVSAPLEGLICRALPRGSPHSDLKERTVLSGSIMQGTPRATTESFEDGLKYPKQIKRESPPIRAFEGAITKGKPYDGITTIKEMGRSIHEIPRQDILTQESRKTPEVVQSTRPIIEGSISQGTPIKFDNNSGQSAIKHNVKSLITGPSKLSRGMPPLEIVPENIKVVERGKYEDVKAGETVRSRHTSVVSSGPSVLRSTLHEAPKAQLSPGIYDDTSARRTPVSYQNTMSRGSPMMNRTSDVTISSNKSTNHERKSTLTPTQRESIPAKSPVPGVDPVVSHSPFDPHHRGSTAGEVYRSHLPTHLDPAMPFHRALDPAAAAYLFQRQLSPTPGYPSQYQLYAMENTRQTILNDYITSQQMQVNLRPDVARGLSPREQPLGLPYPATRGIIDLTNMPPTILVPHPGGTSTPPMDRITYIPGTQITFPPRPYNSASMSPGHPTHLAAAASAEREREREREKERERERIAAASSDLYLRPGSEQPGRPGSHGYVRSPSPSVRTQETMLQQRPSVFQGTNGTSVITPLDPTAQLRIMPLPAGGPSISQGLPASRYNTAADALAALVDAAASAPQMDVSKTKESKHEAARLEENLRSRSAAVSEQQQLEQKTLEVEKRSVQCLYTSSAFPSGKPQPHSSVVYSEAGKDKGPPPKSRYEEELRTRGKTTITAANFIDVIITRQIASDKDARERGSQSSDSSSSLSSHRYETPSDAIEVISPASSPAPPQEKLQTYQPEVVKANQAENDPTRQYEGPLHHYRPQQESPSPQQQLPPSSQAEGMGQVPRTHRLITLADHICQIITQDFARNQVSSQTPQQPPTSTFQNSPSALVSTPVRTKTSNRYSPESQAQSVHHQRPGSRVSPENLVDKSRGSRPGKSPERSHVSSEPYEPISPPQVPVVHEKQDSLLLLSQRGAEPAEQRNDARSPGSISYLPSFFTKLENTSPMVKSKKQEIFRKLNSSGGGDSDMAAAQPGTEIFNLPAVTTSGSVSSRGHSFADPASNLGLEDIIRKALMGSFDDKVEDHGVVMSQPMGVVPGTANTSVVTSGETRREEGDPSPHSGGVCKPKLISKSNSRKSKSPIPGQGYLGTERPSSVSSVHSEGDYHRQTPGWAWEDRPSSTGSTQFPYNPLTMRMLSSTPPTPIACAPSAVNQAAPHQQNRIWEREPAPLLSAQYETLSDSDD

Molecule | GATA-1 transcriptional activity (luciferase) [1] | HDAC activity with histone as a substrate (histone) | IL-2 transcriptional activity (luciferase) ([2]; Jurkat cells stimulated with PMA, Ionomycin, Anti-CD28 antibody, expression plasmid 1, 3 and 10 μg) | IL-2 transcriptional activity (luciferase) ([2]; Jurkat cells, 10 μg expression plasmid, compared with HDAC1 and HDAC3 variants) | HDAC activity with [3H]-labeled acetylated histone as a substrate [3] | HDAC activity with [3H]-labeled acetylated histone as a substrate [4]
B1 | GATA-1 transcription suppression was not observed | decreased HDAC activity compared to wild-type HDAC4 | IL-2 transcription suppression depending on the expression level | IL-2 transcription suppression was observed | – | –
B2 | – | – | – | – | had decreased HDAC activity compared to wild-type HDAC4 | had decreased HDAC activity compared to wild-type HDAC4
B3 | – | – | – | – | had decreased HDAC activity compared to wild-type HDAC4 | had decreased HDAC activity compared to wild-type HDAC4
